± gives the uncertainty stated by the source.
Experiment: self-splicing fitness, log relative to wild type (ln ratio); higher = more splicing; Tetrahymena group I intron in knt gene, E. coli kanamycin selection, DiMSum; sequences stand for … in CUCUCU…GGAGGGAAAAGUUAUCAGGCAUGCACCUGGUAGCUAGUCUUUAAACCAAUAGAUUGCAUCGGUUUAAAAGGCAAGACCGUCAAAUUGCGGGAAAGGGGUCAACAGCCGUUCAGUACCAAGUCUCAGGGGAAACUUUGAGAUGGCCUUGCAAAGGGUAUGGUAAUAAGCUGACGGACAUGGUCCUAACCACGCAGCCAAGUCCUAAGUCAACAGAUCUUCUGUUGAUAUGGAUGCAGUUCACAGACUAAAUGUCGGUCGGGGAAGAUGUAUUCUUCUCAUAAGAUAUAGUCGGACCUCUCCUUAAUGGGAGCUAGCGGAUGAAGUGAUGCAACACUGGAGCCGCUGGGAACUAAUUUGUAUGCGAAAGUAUAUUGAUUAGUUUUGGAGUACUCGUGGUCG
Summary of the method: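 Six replicate transformations of E. coli BL21(DE3) with a pET-22b(+) library were grown overnight at 37°C or 30°C. The library randomised all eight P1ex-region intron nucleotides, the intron lying in the knt kanamycin-resistance gene, and plates were LB agar with or without 25 μg/mL kanamycin plus 100 μg/mL carbenicillin, 50 μM IPTG and 0.2% rhamnose. Pooled colonies were amplicon-sequenced on an Illumina HiSeq 2500, and fitness is the DiMSum error-weighted combination of wild-type-normalised replicate fold changes, kanamycin versus none.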

Sequence	self-splicing fitness (ln) (30 °C)	self-splicing fitness (ln) (37 °C)
AGUGAGCAAUAUUACGGAUC	-2.42 ± 0.25	-1.25 ± 0.34
UUGUAGCAAUAUUACGCUAA	-0.865 ± 0.17	-0.386 ± 0.19
AUAGAGCAAUAUUACGAGCG	-2.43 ± 0.21	-1.07 ± 0.22
UCUCAGCAAUAUUACGUGCA	-0.751 ± 0.065	-0.0852 ± 0.071
CACCAGCAAUAUUACGGCAC	-2.38 ± 0.12	-1.09 ± 0.11
UAGGAGCAAUAUUACGUACG	-1.28 ± 0.17	-0.737 ± 0.3
CCCUAGCAAUAUUACGACAC		-2.32 ± 0.28
UGCCAGCAAUAUUACGCCAU	-3.3 ± 0.28	-2.48 ± 0.26
UCUCAGCAAUAUUACGCUUG	-3.17 ± 0.16	-3.32 ± 0.33
AUGAAGCAAUAUUACGAGAU	-2.93 ± 0.21	-1.28 ± 0.21
AGGUAGCAAUAUUACGCCAA	-1.19 ± 0.02	-0.512 ± 0.035
UCAUAGCAAUAUUACGACGC	-1.6 ± 0.19	-0.696 ± 0.21
GUUUAGCAAUAUUACGGACU		1.32 ± 0.45
AGUGAGCAAUAUUACGGGAU	-3.44 ± 0.26	-1.7 ± 0.29
UUGUAGCAAUAUUACGGAGU		-2.5 ± 0.36
UGGUAGCAAUAUUACGUAGU	-3.23 ± 0.22	-1.04 ± 0.18
GAGUAGCAAUAUUACGAAGC	-2.94 ± 0.32	-1.8 ± 0.44
AUUCAGCAAUAUUACGUACG	-1.91 ± 0.087	-0.205 ± 0.1
GAUCAGCAAUAUUACGCGGA	-1.45 ± 0.18	-0.828 ± 0.14

Sequence	self-splicing fitness (ln) (30 °C)	self-splicing fitness (ln) (37 °C)
AGACAGCAAUAUUACGUCUU	-4.54 ± 0.25	-2.74 ± 0.18
GCGAAGCAAUAUUACGGAUG	-1.48 ± 0.078	-1.32 ± 0.11
UGUGAGCAAUAUUACGUACU	-1.72 ± 0.17	0.399 ± 0.15
CGCGAGCAAUAUUACGGUGA	-2.81 ± 0.14	-1.7 ± 0.11
CAAUAGCAAUAUUACGUAAG	0.0257 ± 0.049	0.121 ± 0.062
GAUGAGCAAUAUUACGUGUU	-3.72 ± 0.31	-2.47 ± 0.27
CCCGAGCAAUAUUACGCGUG	-3.9 ± 0.2	-3.2 ± 0.29
UUCUAGCAAUAUUACGCGAA	-2.25 ± 0.21	-1.3 ± 0.2
UAAAAGCAAUAUUACGGUGA	-1.15 ± 0.077	-0.788 ± 0.076
CGAAAGCAAUAUUACGGGUU	-3.58 ± 0.21	-2.74 ± 0.19
ACAAAGCAAUAUUACGGAAU	-3.21 ± 0.19	-1.82 ± 0.19
CAACAGCAAUAUUACGUAUC	-1.96 ± 0.16	-2.75 ± 0.18
CUGUAGCAAUAUUACGCCCG	-0.124 ± 0.26	-0.221 ± 0.31
AUCAAGCAAUAUUACGAGGG	-2.85 ± 0.19	-1.39 ± 0.19
UACCAGCAAUAUUACGCCGU	-1.4 ± 0.14	-1.6 ± 0.23
AAUCAGCAAUAUUACGUCAC	-3.34 ± 0.27	-1.93 ± 0.19
AUCCAGCAAUAUUACGGUGG	-4.66 ± 0.33	-2.49 ± 0.21
ACGUAGCAAUAUUACGGGCU	-1.15 ± 0.063	-1.18 ± 0.1
ACAGAGCAAUAUUACGCUUU	-2.28 ± 0.26	-2.45 ± 0.23
